According to the supplement of paper PMC12042874:
± gives the uncertainty stated by the source.

Assay: amyloid nucleation score (Sup35N fusion, yeast selection) (log enrichment); library NNK1; higher = more nucleation; inactive = no reads after selection
How it was run: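 The nucleation score is the log enrichment of output over input reads, calculated with DiMSum and centred on the mode score of non-aggregating sequences. Sequences with under 100 input reads were excluded. Reads came from Illumina sequencing of plasmid inserts from psi-negative yeast expressing Sup35N fused to peptides of 20 random codons, induced 24 hours with 100 μM copper sulfate and grown 7 days at 30°C without adenine and uracil.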

**Q.** With QTNKLEGVANSGKIITNKSG as the substance, how does the amyloid nucleation score read?
**A.** The amyloid nucleation score was 0.021 ± 0.97.

**Q.** Which amyloid nucleation score does the source give for INHLKGVSRYSVPVLLGFIA here?
**A.** Its amyloid nucleation score is 0.124 ± 0.45.

**Q.** Which amyloid nucleation score does the source give for QCKRFCCIWVCNADFVAGAW here?
**A.** The amyloid nucleation score was 7.745 ± 0.045.

**Q.** For PYAAGENWWMCLQRVPVTIV, which amyloid nucleation score is on record?
**A.** The amyloid nucleation score was 0.027 ± 0.67.

**Q.** With AKLYMCSCINCTASHEITYF as the substance, how does the amyloid nucleation score read?
**A.** Its amyloid nucleation score is 8.419 ± 0.045.

**Q.** Which amyloid nucleation score does the source give for YPGGILIRRVNIKLDGAAIV here?
**A.** Its amyloid nucleation score is -0.869 ± 0.68.

**Q.** Which amyloid nucleation score does the source give for CLPCVCIVNFTLGYDKGVV here?
**A.** The amyloid nucleation score was 8.027 ± 0.048.

**Q.** With ALETFNGQVMSPSSRLRIDR as the substance, how does the amyloid nucleation score read?
**A.** The amyloid nucleation score was -1.07 ± 0.88.

**Q.** Which amyloid nucleation score does the source give for TQDIILDNSHDATHQHTRRA here?
**A.** The amyloid nucleation score was -0.243 ± 1.

**Q.** With CVAGLVDGKRKNVIRKWFWN as the substance, how does the amyloid nucleation score read?
**A.** Its amyloid nucleation score is 0.049 ± 0.44.

**Q.** Which amyloid nucleation score does the source give for SHCCR here?
**A.** Its amyloid nucleation score is “inactive”.

**Q.** For PMVRMQYDPYIKTMCVVWMR, which amyloid nucleation score is on record?
**A.** The amyloid nucleation score was -0.195 ± 1.2.

**Q.** For SYFRREDCFVFKVITLFIMS, which amyloid nucleation score is on record?
**A.** The amyloid nucleation score was -0.675 ± 0.46.

**Q.** For RPLALRVQDSPKSFGQSP, which amyloid nucleation score is on record?
**A.** The amyloid nucleation score was 0.145 ± 0.7.

**Q.** With QFVMINYSSSNVASPNLLRI as the substance, how does the amyloid nucleation score read?
**A.** The amyloid nucleation score was 0.94 ± 0.3.

**Q.** Which amyloid nucleation score does the source give for VSVSRGRTFSFSIGSYRIGR here?
**A.** The amyloid nucleation score was 3.11 ± 0.091.

**Q.** Which amyloid nucleation score does the source give for LSVAHDGSLWVLFRKKPFGL here?
**A.** The amyloid nucleation score was -0.106 ± 0.57.

**Q.** With YSCCRVFMCARWLRVTCNMS as the substance, how does the amyloid nucleation score read?
**A.** Its amyloid nucleation score is 0.189 ± 0.31.

**Q.** For CGRVDEFKALLYKILRDYNW, which amyloid nucleation score is on record?
**A.** Its amyloid nucleation score is -0.141 ± 0.23.

**Q.** For NWNSR, which amyloid nucleation score is on record?
**A.** The amyloid nucleation score was 0.197 ± 0.64.

**Q.** For IWIDKRWLMMPKLVRKVPNV, which amyloid nucleation score is on record?
**A.** Its amyloid nucleation score is “inactive”.

**Q.** Which amyloid nucleation score does the source give for CMSVETLTEMVYFKSYTL here?
**A.** The amyloid nucleation score was 0.257 ± 0.42.

**Q.** With LSSLGDLLLMNQPNAQRLTY as the substance, how does the amyloid nucleation score read?
**A.** Its amyloid nucleation score is -0.746 ± 1.

**Q.** For NMIESIVDISTPFIHGMIND, which amyloid nucleation score is on record?
**A.** Its amyloid nucleation score is 0.295 ± 1.1.

**Q.** Which amyloid nucleation score does the source give for VYSRPL here?
**A.** The amyloid nucleation score was 0.098 ± 0.57.

**Q.** Which amyloid nucleation score does the source give for VKCYLDLINFRYLLDLGDEA here?
**A.** The amyloid nucleation score was 0.066 ± 0.2.

**Q.** Which amyloid nucleation score does the source give for DEPLNTMRSYACWSSDSSHP here?
**A.** The amyloid nucleation score was 0.139 ± 0.48.

**Q.** For VSTCAAR, which amyloid nucleation score is on record?
**A.** Its amyloid nucleation score is -0.383 ± 0.95.

**Q.** With LNNAKCKLVSIFHLGVWVGM as the substance, how does the amyloid nucleation score read?
**A.** Its amyloid nucleation score is -1.12 ± 0.96.

**Q.** For YLALVSANNASKKAVVKSTE, which amyloid nucleation score is on record?
**A.** The amyloid nucleation score was -0.054 ± 0.72.

**Q.** With KRRYYCFGAMVY as the substance, how does the amyloid nucleation score read?
**A.** The amyloid nucleation score was 0.203 ± 0.38.

**Q.** With FWYFMLNMVQPRY as the substance, how does the amyloid nucleation score read?
**A.** The amyloid nucleation score was -0.198 ± 0.87.

**Q.** For RFMKPTMVWL, which amyloid nucleation score is on record?
**A.** Its amyloid nucleation score is 0.005 ± 1.4.

**Q.** For SFSKYAGFARKWSMLRVASY, which amyloid nucleation score is on record?
**A.** Its amyloid nucleation score is -0.337 ± 1.2.

**Q.** For RARLNRFVICVSLDMLVLWM, which amyloid nucleation score is on record?
**A.** The amyloid nucleation score was -0.709 ± 0.45.

**Q.** For PKMGSGHSWTRGQYICHS, which amyloid nucleation score is on record?
**A.** The amyloid nucleation score was -0.301 ± 1.1.

**Q.** With GFELVNVVGVIASLYNIIIV as the substance, how does the amyloid nucleation score read?
**A.** Its amyloid nucleation score is 2.92 ± 0.2.

**Q.** Which amyloid nucleation score does the source give for WFYPWVLVWTLSCCVSRHKG here?
**A.** The amyloid nucleation score was 4.35 ± 0.14.

**Q.** Which amyloid nucleation score does the source give for SLPRPIMFSLVVIILYNFVR here?
**A.** Its amyloid nucleation score is -0.333 ± 0.47.

**Q.** With QPFTWVLQKNTRT as the substance, how does the amyloid nucleation score read?
**A.** The amyloid nucleation score was 0.714 ± 0.58.

**Q.** Which amyloid nucleation score does the source give for ERYKY here?
**A.** The amyloid nucleation score was 0.601 ± 0.61.

**Q.** With GRSSD as the substance, how does the amyloid nucleation score read?
**A.** Its amyloid nucleation score is -0.164 ± 0.84.

**Q.** With RNSSGRGERLLVQYAQKKKR as the substance, how does the amyloid nucleation score read?
**A.** The amyloid nucleation score was -0.136 ± 0.41.

**Q.** With ILCLKTDGLGDESRGVSEAG as the substance, how does the amyloid nucleation score read?
**A.** The amyloid nucleation score was 0.27 ± 0.75.

**Q.** With VCESVNNAHAAYSAVLSVQM as the substance, how does the amyloid nucleation score read?
**A.** Its amyloid nucleation score is -0.347 ± 0.54.

**Q.** For IFFCWTMFRS, which amyloid nucleation score is on record?
**A.** Its amyloid nucleation score is 1.28 ± 0.21.

**Q.** For VLGKLEWCNLSSVTRAPCFM, which amyloid nucleation score is on record?
**A.** The amyloid nucleation score was 0.14 ± 0.71.

**Q.** For PYFLGGRA, which amyloid nucleation score is on record?
**A.** Its amyloid nucleation score is -0.809 ± 2.1.

**Q.** For YYVMRYDASLYDKRKERVFG, which amyloid nucleation score is on record?
**A.** Its amyloid nucleation score is 0.851 ± 0.39.

**Q.** Which amyloid nucleation score does the source give for RISYTDCMVEQLHPNQLWQN here?
**A.** The amyloid nucleation score was -0.069 ± 0.52.

**Q.** For LDYSSRSPLTDLST, which amyloid nucleation score is on record?
**A.** Its amyloid nucleation score is 0.041 ± 0.65.

**Q.** For FLHNSWTGGGGTYGICKMRV, which amyloid nucleation score is on record?
**A.** Its amyloid nucleation score is -0.368 ± 0.65.

**Q.** For LFVHFLTLSVISHYPRGN, which amyloid nucleation score is on record?
**A.** Its amyloid nucleation score is “inactive”.

**Q.** For IMPDNDWKSCILIFSRSILF, which amyloid nucleation score is on record?
**A.** The amyloid nucleation score was 2.59 ± 0.15.

**Q.** For PIGLMGFRLSSICLSIRTLP, which amyloid nucleation score is on record?
**A.** The amyloid nucleation score was -0.469 ± 0.65.

**Q.** For IFYSLFEDTYGGYVLNTAYL, which amyloid nucleation score is on record?
**A.** The amyloid nucleation score was “inactive”.

**Q.** Which amyloid nucleation score does the source give for YGSSLAAWVRLCVLTGDSRQ here?
**A.** Its amyloid nucleation score is 1.46 ± 0.38.

**Q.** Which amyloid nucleation score does the source give for CFVGMMKRFR here?
**A.** The amyloid nucleation score was 1.36 ± 0.4.

**Q.** Which amyloid nucleation score does the source give for IICLVNMDLCKSR here?
**A.** The amyloid nucleation score was 3.9 ± 0.16.

**Q.** For CCVGRALCHNVVS, which amyloid nucleation score is on record?
**A.** The amyloid nucleation score was 0.594 ± 0.55.

**Q.** With TSINWFRTVLYGVSLNYFWV as the substance, how does the amyloid nucleation score read?
**A.** Its amyloid nucleation score is 0.345 ± 0.6.

**Q.** Which amyloid nucleation score does the source give for TRIVLLVVRRGTRKG here?
**A.** The amyloid nucleation score was 0.889 ± 0.48.

**Q.** For GSGSAPCCTIAFMMLFGTEG, which amyloid nucleation score is on record?
**A.** The amyloid nucleation score was -0.057 ± 0.81.

**Q.** With IYSRVGWETSWDWSVSVWGF as the substance, how does the amyloid nucleation score read?
**A.** The amyloid nucleation score was 0.031 ± 0.37.

**Q.** Which amyloid nucleation score does the source give for GICDLLAHG here?
**A.** Its amyloid nucleation score is 0.322 ± 0.25.

**Q.** With CLFLDWMPM as the substance, how does the amyloid nucleation score read?
**A.** The amyloid nucleation score was 0.548 ± 0.84.

**Q.** Which amyloid nucleation score does the source give for SNFLHCIVIILWLCFNL here?
**A.** The amyloid nucleation score was 0.53 ± 0.71.

**Q.** Which amyloid nucleation score does the source give for LKMFSRPCVMIKNRTGVR here?
**A.** Its amyloid nucleation score is 0.452 ± 0.33.

**Q.** With SYSYIRLDNFSMFIYFADCS as the substance, how does the amyloid nucleation score read?
**A.** Its amyloid nucleation score is 3.92 ± 0.066.

**Q.** For DYNLVSRYVEPSRLVGFLRI, which amyloid nucleation score is on record?
**A.** Its amyloid nucleation score is -0.226 ± 0.73.

**Q.** For LRLLSNVKWTKCS, which amyloid nucleation score is on record?
**A.** Its amyloid nucleation score is 0.367 ± 0.97.

**Q.** Which amyloid nucleation score does the source give for PLFNNSRRCWGFGSLEDYLL here?
**A.** The amyloid nucleation score was 0.213 ± 0.53.

**Q.** For HIPNDARRLFGSMGVSRASA, which amyloid nucleation score is on record?
**A.** The amyloid nucleation score was -0.407 ± 1.

**Q.** Which amyloid nucleation score does the source give for RTNVWVAFVDSRSHGQFCQK here?
**A.** Its amyloid nucleation score is 3.68 ± 0.18.

**Q.** With NWCVLALIN as the substance, how does the amyloid nucleation score read?
**A.** The amyloid nucleation score was 1.83 ± 0.43.

**Q.** Which amyloid nucleation score does the source give for VGIGLSFQTEQSVCTDLLYS here?
**A.** Its amyloid nucleation score is -0.203 ± 0.69.

**Q.** With NYTTSMNPLHFVACK as the substance, how does the amyloid nucleation score read?
**A.** Its amyloid nucleation score is “inactive”.

**Q.** With CTDPFQDLTRELLLLVCIGL as the substance, how does the amyloid nucleation score read?
**A.** The amyloid nucleation score was -0.201 ± 0.65.

**Q.** For PSFNLNFVRINLQDGNMRLS, which amyloid nucleation score is on record?
**A.** Its amyloid nucleation score is 7.038 ± 0.048.

**Q.** With PYMVSGSWPKFRT as the substance, how does the amyloid nucleation score read?
**A.** Its amyloid nucleation score is 0.041 ± 0.58.

**Q.** Which amyloid nucleation score does the source give for KDNLYWKDLSVCLRRFVGLH here?
**A.** The amyloid nucleation score was “inactive”.

**Q.** For YFTERL, which amyloid nucleation score is on record?
**A.** Its amyloid nucleation score is 0.122 ± 0.44.

**Q.** For GATSFFFSFRESNPLSNNHS, which amyloid nucleation score is on record?
**A.** Its amyloid nucleation score is 2.79 ± 0.099.

**Q.** With GSMMWSMTADKLKFAGSVVC as the substance, how does the amyloid nucleation score read?
**A.** The amyloid nucleation score was 0.889 ± 0.54.

**Q.** For GQLWGEVVIVYCKFAMEWAY, which amyloid nucleation score is on record?
**A.** Its amyloid nucleation score is 0.898 ± 0.27.

**Q.** For IGMVSVSC, which amyloid nucleation score is on record?
**A.** Its amyloid nucleation score is 0.037 ± 1.2.
